These results are taken from US12281147.

The target in experiment [1] is human interleukin 21 receptor (IL-21R) (human) (UniProt Q9HBE5). Nature of the experiment: AlphaSeq yeast mating, unbuffered media.
Experiment [2] deals with human IL-21R (human) (UniProt Q9HBE5). Nature of the experiment: AlphaSeq yeast mating assay, pH 5 media.
For experiment [3] the target is unchanged. Nature of the experiment: AlphaSeq yeast mating assay, unbuffered media.
The target is the same in experiment [4]. Nature of the experiment: AlphaSeq yeast mating assay, pH 6 media.
Experiment [5] shares this target. Nature of the experiment: AlphaSeq yeast mating assay, pH 7 media.
The target of experiment [6] is wild-type human IL-21R (human) (UniProt Q9HBE5). Nature of the experiment: AlphaSeq yeast mating assay, pH 5 media.
The target is the same in experiment [7]. The experiment in a line: AlphaSeq yeast mating assay, unbuffered media.

For orientation: Kd means the equilibrium constant for the complex coming apart. Read a high Kd as a looser complex. As to “IL-21_K131M (from UniProt Q9HBE4 32-152) (ligand)”, the dissociation constant Kd in experiment [1] came out at 27 µM. This counts as double-digit micromolar.
Take “IL-21_F79E (from UniProt Q9HBE4 32-152) (ligand)”: the Kd in experiment [2] was found to be 59 µM; in experiment [3], 110 µM; in experiment [4] it was 7 µM; in experiment [5], 6.9 µM.
For the substance “IL-21_W73G (from UniProt Q9HBE4 32-152) (ligand)”, the Kd in experiment [2] was 57 µM; in experiment [3], 150 µM; in experiment [5] it was 0.33 µM.
Regarding “IL-21_M36T (from UniProt Q9HBE4 32-152) (ligand)”, the dissociation constant (Kd) was 0.11 µM in experiment [6] and 3.1 µM in experiment [7].
In the case of “IL-21_L56F (from UniProt Q9HBE4 32-152) (ligand)”, the figures for the Kd in experiment [2], in experiment [3] and in experiment [5] were 54 µM, 240 µM and 0.24 µM, respectively.
For “IL-21_Y52H (from UniProt Q9HBE4 32-152) (ligand)”, the Kd in experiment [2] worked out at 4.4 µM; in experiment [3], 69 µM; in experiment [5], 0.11 µM.
For the substance “IL-21_A112R (from UniProt Q9HBE4 32-152) (ligand)”, the dissociation constant (Kd) turned out to be 0.039 µM in experiment [6] and 7.9 µM in experiment [7].
The substance “IL-21_D33T (from UniProt Q9HBE4 32-152) (ligand)” displayed a Kd in experiment [1] of 15 µM.
Consider “IL-21_W73K (from UniProt Q9HBE4 32-152) (ligand)”, for which the dissociation constant (Kd) in experiment [3] was found to be 890 µM; in experiment [4] it was 30 µM; in experiment [5], 10 µM.
As for “IL-21_I96P (from UniProt Q9HBE4 32-152) (ligand)”, the equilibrium dissociation constant (Kd) worked out at 270 µM in experiment [3], 5.7 µM in experiment [4] and 3 µM in experiment [5].
In the same order, the values of “IL-21_I45G (from UniProt Q9HBE4 32-152) (ligand)” are 330 µM, 5 µM and 1.2 µM.
Regarding “IL-21_V98K (from UniProt Q9HBE4 32-152) (ligand)”, the dissociation constant Kd in experiment [3] turned out to be 150 µM; in experiment [4], 0.094 µM; in experiment [5], 0.25 µM.
As to “IL-21_I37V (from UniProt Q9HBE4 32-152) (ligand)”, the equilibrium dissociation constant (Kd) in experiment [6] was found to be 0.058 µM; in experiment [7] it was 3.2 µM.
“IL-21_P62S (from UniProt Q9HBE4 32-152) (ligand)”: the Kd in experiment [2] turned out to be 0.1 µM; in experiment [3] it was 2.8 µM; in experiment [5], 0.027 µM.
Take “IL-21_Q150D (from UniProt Q9HBE4 32-152) (ligand)”: the dissociation constant Kd in experiment [2] came out at 0.056 µM; in experiment [3] it was 0.96 µM; in experiment [4], 0.021 µM; in experiment [5], 0.059 µM.
In the same order, the values of “IL-21_R34Q (from UniProt Q9HBE4 32-152) (ligand)” are 0.2 µM, 1.1 µM, 0.035 µM and 0.12 µM.
With “IL-21_E68K (from UniProt Q9HBE4 32-152) (ligand)”, the Kd in experiment [6] amounted to 0.027 µM; in experiment [7], 3.3 µM.
For the substance “IL-21_R139S (from UniProt Q9HBE4 32-152) (ligand)”, the Kd worked out at 0.081 µM in experiment [6] and 3 µM in experiment [7].
On to “IL-21_M39G (from UniProt Q9HBE4 32-152) (ligand)”, for which the Kd turned out to be 150 µM in experiment [2], 240 µM in experiment [3], 31 µM in experiment [4] and 7.8 µM in experiment [5].
“IL-21_V53S (from UniProt Q9HBE4 32-152) (ligand)”: the Kd was 0.047 µM in experiment [2], 1.4 µM in experiment [3], 0.02 µM in experiment [4] and 0.056 µM in experiment [5].
For “IL-21_F60H (from UniProt Q9HBE4 32-152) (ligand)”, in that order: 0.062 µM, 2.4 µM, 0.015 µM and 0.035 µM.
Consider “IL-21_R105A (from UniProt Q9HBE4 32-152) (ligand)”, for which the dissociation constant Kd in experiment [2] was found to be 260 µM; in experiment [3] it was 270 µM; in experiment [5], 20 µM.
Regarding “IL-21_I96D (from UniProt Q9HBE4 32-152) (ligand)”, the dissociation constant (Kd) is 580 µM in experiment [3], 60 µM in experiment [4] and 35 µM in experiment [5].
On to “IL-21_A112P (from UniProt Q9HBE4 32-152) (ligand)”, for which the dissociation constant Kd turned out to be 0.058 µM in experiment [2], 1 µM in experiment [3], 0.021 µM in experiment [4] and 0.08 µM in experiment [5].
As for “IL-21_Q32K (from UniProt Q9HBE4 33-152) (ligand)”, the Kd in experiment [2] came to 0.027 µM; in experiment [3], 2.7 µM; in experiment [4], 0.012 µM; in experiment [5], 0.028 µM.
In the case of “IL-21_N54K (from UniProt Q9HBE4 32-152) (ligand)”, the values for the Kd in experiment [6] and in experiment [7] were 0.19 µM and 8 µM, respectively.
Consider “IL-21_I37S (from UniProt Q9HBE4 32-152) (ligand)”, for which the Kd amounted to 16 µM in experiment [2], 240 µM in experiment [3], 0.53 µM in experiment [4] and 0.32 µM in experiment [5].
Regarding “IL-21_L42H (from UniProt Q9HBE4 32-152) (ligand)”, the values for the Kd in experiment [3], in experiment [4] and in experiment [5] were 550 µM, 67 µM and 5.4 µM, respectively.
“IL-21_P62V (from UniProt Q9HBE4 32-152) (ligand)”: the dissociation constant (Kd) turned out to be 11 µM in experiment [2], 110 µM in experiment [3] and 0.12 µM in experiment [5].
On to “IL-21_S109M (from UniProt Q9HBE4 32-152) (ligand)”, for which the dissociation constant Kd in experiment [3] turned out to be 2.5 µM; in experiment [4] it was 0.43 µM; in experiment [5], 0.081 µM.
Regarding “IL-21_V46T (from UniProt Q9HBE4 32-152) (ligand)”, the Kd in experiment [3] was found to be 640 µM; in experiment [5] it was 0.053 µM.
“IL-21_V53E (from UniProt Q9HBE4 32-152) (ligand)” displayed an equilibrium dissociation constant (Kd) in experiment [1] of 31 µM.
On to “IL-21_E72T (from UniProt Q9HBE4 32-152) (ligand)”, for which the Kd in experiment [3] came to 2.8 µM; in experiment [4], 0.027 µM; in experiment [5], 0.057 µM.
Substance “IL-21_S77R (from UniProt Q9HBE4 32-152) (ligand)” showed a Kd in experiment [1] of 46 µM.
For “IL-21_F79Y (from UniProt Q9HBE4 32-152) (ligand)”, the Kd in experiment [2] came out at 72 µM; in experiment [3] it was 330 µM; in experiment [4], 2 µM; in experiment [5] it was 0.53 µM.
In the same order, the values of “IL-21_D44A (from UniProt Q9HBE4 32-152) (ligand)” are 0.14 µM, 240 µM, 0.052 µM and 0.24 µM.
With “IL-21_V53H (from UniProt Q9HBE4 32-152) (ligand)”, the Kd in experiment [1] worked out at 46 µM. This lies in the double-digit micromolar range.
Regarding “IL-21_I37K (from UniProt Q9HBE4 32-152) (ligand)”, the Kd came to 3.3 µM in experiment [2], 95 µM in experiment [3], 0.19 µM in experiment [4] and 0.12 µM in experiment [5].
With “IL-21_V46K (from UniProt Q9HBE4 32-152) (ligand)”, the Kd in experiment [2] was determined as 340 µM; in experiment [3] it was 730 µM; in experiment [5] it was 28 µM.
Take “IL-21_I95K (from UniProt Q9HBE4 32-152) (ligand)”: the figures for the Kd in experiment [3] and in experiment [5] were 260 µM and 0.24 µM, respectively.
Consider “IL-21_V46Q (from UniProt Q9HBE4 32-152) (ligand)”, for which the results for the Kd in experiment [3], in experiment [4] and in experiment [5] were 1000 µM, 260 µM and 71 µM, respectively.
